One may read the Kd as the free concentration of one partner at which half of the binding sites on the other are occupied at equilibrium, for simple one-to-one binding. Lower therefore signals tighter binding.

These results are taken from US20140073518A1.

Read-outs that look alike come from different tables or passages of the source. Ends that are not written are not given here.

Experiment [1] deals with integrins on PC3 cells (adhesion to vitronectin).
For experiment [2] the target is unchanged. As to the kind of experiment: cell-based or functional assay.
For experiment [3] the target is unchanged. As to the kind of experiment: cell-based or functional assay. The source holds these as a separate data set.
The target in experiment [4] is human umbilical vein endothelial cells (HUVECs), which express medium levels of the αvβ3, αvβ5 integrins, the Met receptor, and a high level of the α5β1 integrin. As to the kind of experiment: HUVEC cell binding assay.

B1: knottin 2.5F-Fc (EETI 2.5F fused to the Fc domain of mouse Ig2a) (Fc fusion)
chain: GCPRPRGDNPPLTCKQDSDCLAGCVCGPNGFCGEPRGPTIKPCPPCKCPAPNLLGGPSVFIFPPKIKDVLMISLSPIVTCVVVDVSEDDPDVQISWFVNNVEVHTAQTQTHREDYNSTLRVVSALPIQHQDWMSGKEFKCKVNNKDLPAPIERTISKPKGSVRAPQVYVLPPPEEEMTKKQVTLTCMVTDFMPEDIYVEWTNNGKTELNYKNTEPVLDSDGSYFMYSKLRVEKKNWVERNSYSCSVVHEGLHNHHTTKSFSRTPGK
B1: in experiment [1], the IC50 (read off the curve), PC3 cell adhesion to vitronectin came out at 10 nM.

B2: knottin 2.5D-Fc (EETI 2.5D fused to the Fc domain of mouse Ig2a) (Fc fusion)
chain: GCPQGRGDWAPTSCKQDSDCRAGCVCGPNGFCGEPRGPTIKPCPPCKCPAPNLLGGPSVFIFPPKIKDVLMISLSPIVTCVVVDVSEDDPDVQISWFVNNVEVHTAQTQTHREDYNSTLRVVSALPIQHQDWMSGKEFKCKVNNKDLPAPIERTISKPKGSVRAPQVYVLPPPEEEMTKKQVTLTCMVTDFMPEDIYVEWTNNGKTELNYKNTEPVLDSDGSYFMYSKLRVEKKNWVERNSYSCSVVHEGLHNHHTTKSFSRTPGK
In experiment [1], B2 showed an IC50 (read off the curve), PC3 cell adhesion to vitronectin of 10 nM.

In turn, GCPRPRGDNPPLTCKQDSDCLAGCVCGPNGFCG (designed binder) [EETI-II mutant 2.5F] returned a Half-maximal inhibitor concentration, inhibition of PC3 cell adhesion to human vitronectin in experiment [2] of 20 to 40 nM.

B3: EETI2.5F-Aras4 fusion protein (designed binder)
chain: DYKDDDDKPRGCPRPRGDNPPLTCSQDSDCLAGCVCGPNGFCGYAEGQGKRRNTIHEFKKSAKTTLIKIDPALRIKTEKANTADQCANRCTRSKGLPFTCKAFVFDKARKRCLWFPFNSMSSGVKKEFGHEFDLYENKAYIRDCIIGRGRNYRGTVSITKSGIKCQPWSAMIPHEHSFLPSSYRGEDLRENYCRNPRGEEGGPWCYTSDPEVRYEVCDIPQCSEVETRHHHHHH
As for B3, in experiment [3], the Half-maximal inhibitor concentration, inhibition of PC3 cell adhesion to human vitronectin was 20 to 40 nM.

B4: EETI2.5F-M2.2(D127A) fusion protein (designed binder)
chain: DYKDDDDKPRGCPRPRGDNPPLTCSQDSDCLAGCVCGPNGFCGYAEGQRKRRNTIHEFKKSAKTTLIKIDPALKIKTEKVNTADQCANRCTRNKGLPFTCKAFVFDKARKRCLWFPFNSMSSGVKKEFGHEFDLYENKDYIRACIIGNGRSYRGTVSITKSGIKCQPWSSMIPHEHSFLPSSYRGEDLRENYCRNPRGEEGGPWCFTSDPEVRYEVCDIPQCSEVETRHHHHHH
B4 returned a Kd in experiment [4] of 4.7 nM.

B5: AgRP mutant 7A (designed binder)
chain: GCVRLHESCLGQQVPCCDPAATCYCSGRGDNDLVCYCR
modifications: ends and bridges not checked; also: four disulfide bonds, pairings not given here
Consider B5, for which the Half-maximal inhibitor concentration, inhibition of PC3 cell adhesion to human vitronectin in experiment [3] lay within 20 to 40 nM.

B6: AgRP7A-Aras4 fusion protein (soluble, FLAG and His tagged) (designed binder)
chain: DYKDDDDKPRGCVRLHESCLGQQVPCCDPAATCYCSGRGDNDLVCYCRYAEGQGKRRNTIHEFKKSAKTTLIKIDPALRIKTEKANTADQCANRCTRSKGLPFTCKAFVFDKARKRCLWFPFNSMSSGVKKEFGHEFDLYENKAYIRDCIIGRGRNYRGTVSITKSGIKCQPWSAMIPHEHSFLPSSYRGEDLRENYCRNPRGEEGGPWCYTSDPEVRYEVCDIPQCSEVETRHHHHHH
Consider B6, for which, in experiment [3], the Half-maximal inhibitor concentration, inhibition of PC3 cell adhesion to human vitronectin was 20 to 40 nM.

B7: AgRp7A-M2.2(D127A) fusion protein (designed binder)
chain: DYKDDDDKPRGCVRLHESCLGQQVPCCDPAATCYCSGRGDNDLVCYCRYAEGQRKRRNTIHEFKKSAKTTLIKIDPALKIKTEKVNTADQCANRCTRNKGLPFTCKAFVFDKARKRCLWFPFNSMSSGVKKEFGHEFDLYENKDYIRACIIGNGRSYRGTVSITKSGIKCQPWSSMIPHEHSFLPSSYRGEDLRENYCRNPRGEEGGPWCFTSDPEVRYEVCDIPQCSEVETRHHHHHH
On to B7, for which the Kd in experiment [4] turned out to be 9.4 nM.
